This passage reports Kd results from patent US20260318927 (published 2026).

For experiment [1], the target named is T1, MR-proADM (human).
T1 chain: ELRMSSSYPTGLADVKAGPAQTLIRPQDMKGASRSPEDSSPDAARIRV
The experiment in a line: SPR, 25C pH 7.4, Ab 2-a. In general terms: In SPR one partner is held on a chip, and binding of the other changes the refractive index at the surface.

Experiment [2] has as its target T1, MR-proADM. The experiment in a line: SPR, 25C pH 7.4, Ab 2-c.
The target of experiment [3] is T1, MR-proADM. Put plainly: SPR, 25C pH 7.4, Ab 2-b.
For experiment [4], the target named is T1, MR-proADM. Put plainly: SPR, antigen 2.
Experiment [5] addresses T1, MR-proADM. Put plainly: SPR, antigen 1.
The target of experiment [6] is T1, MR-proADM. Put plainly: SPR, 25C pH 7.4, Ab 3-d.
The target of experiment [7] is T1, MR-proADM. Put plainly: SPR, 25C pH 7.4, Ab 3-b.
Experiment [8] has as its target T1, MR-proADM. Put plainly: SPR, 25C pH 7.4, Ab 3-a.
Experiment [9] deals with T1, MR-proADM. The experiment in a line: SPR, 25C pH 7.4, Ab 3-c.
Experiment [10] deals with T1, MR-proADM. The experiment in a line: SPR, 25C pH 7.4.

B1: Ab2 (antibody, V domains shown)
VH: QIQLVQSGPELRKPGETVKISCKASGYTFTDYSMHWVKQVPGKVLKWMGWINTETGEPTYVDDFKGRFAFSLETSASTAYLRINILKNEDAATYFCATNFDYWGQGTTLTVSS
VL: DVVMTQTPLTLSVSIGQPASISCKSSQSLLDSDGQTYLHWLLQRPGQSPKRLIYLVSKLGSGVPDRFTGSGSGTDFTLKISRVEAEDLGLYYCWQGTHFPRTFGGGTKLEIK
For B1, the Kd (commonly the concentration at which binding is half-saturated) with MR-proADM [1] was 2.97 nM; with MR-proADM [2], 2.82 nM; in the experiment with MR-proADM [3] it was 3.02 nM; with MR-proADM [4], 2.57 nM; with MR-proADM [5], 2.49 nM.

B2: Ab3 (antibody, V domains shown)
VH: EVQLQQSGPELVRPGASVKISCKASGYSFTDYFMHWMKQSHVKSLEWIGRLNPYNGATNYNQNFKDKATLTVDKSSSTAYMELHSLTSEDSAVYYCLSFTTPPEAYWGQGTLVTVSA
VL: EIVMTQAAFSNPVTLGTSASISCRSNKSLLYSNGITYLFWYLQRPGQSPQLLIYQMSNLASGVPDRFSGSGSGTDFTLRISRVEAEDVGVYYCAQNLELPWTFGGGTKLEIK
As to B2, the Kd worked out at 20.1 nM in the experiment with MR-proADM [6]; 17.1 nM with MR-proADM [7]; 14.8 nM with MR-proADM [8]; 17.4 nM with MR-proADM [4]; 13.9 nM with MR-proADM [5]; 18.8 nM in the experiment with MR-proADM [9].

B3: Ab5 (antibody, V domains shown)
VH: EVQLQQSGPELVKPGASVKISCKASGYSFTDYYMHWVKQSHVKSLEWIGRINPYNGATKYNQNFKDKASLTVDKSSSTAYMELHSLTSEDSAVYYCTRRYDNDDGDYWGQGTTLRVSS
VL: DIVMTQAAFSNPVTLGTSASISCRSSKSLLYSNGITYLYWYLQKPGQSPQLLIYQMSNLASGVPDRFSSSGSGTDFTLRISRVEAEDVGVYYCAQNLELPWTFGGGTKLEIK
As to B3, the Kd in the experiment with MR-proADM [4] is 101 nM; with MR-proADM [5], 6.47 nM; with MR-proADM [10], 247 nM.
